Experiment [1] addresses T1, human ROR1 (Receptor Tyrosine Kinase-Like Orphan Receptor 1) on the cell surface (human, UniProt Q01973 30-937).
T1 construct: whole, on cells; engineered into B16-F10 (high density) and LS174T (low density) cells; also called B16-F10-ROR1-H; LS174T-ROR1-L
Nature of the experiment: flow cytometry, B16-F10 cells expressing human ROR1 (high density). The protocol:
(§1) As shown in the tables below, mouse B16-F10 melanoma (Tables 9A-9F) or LS174T human colorectal adenocarcinoma (Tables 9G-9H) cells genetically engineered to express human ROR1 at high and low densities, respectively, were stained for flow cytometric analysis with 100 nM of humanized variants of the ROR1 specific VHHs, 5A1 or 2A11 in either a VHH-Fc format or the Ac13 format shown in FIG. 1. Cells were analyzed on a flow cytometer after the primary test article was fluorescently tagged with a goat anti human IgG-Fc specific PE secondary antibody. The positive control used was PE conjugated anti-human ROR1 clone 2A2. Negative controls included a PE labeled mouse IgG Ab, the secondary antibody only, the combination of a Hen Egg Lysozyme (HEL) specific antibody plus goat anti human IgG-Fc specific PE and Fluorescence Minus One (FMO). Other controls included the non-humanized version of 5A1-Fc (FUSE179), 2A11-Fc (FUSE112) and 5A1-Ac13 (FUSE488). Humanized variants were generated using computational design (FUSE489, FUSE497-498, FUSE563, FUSE569-570, and BI-HU9-VHH11-33), a yeast display library in which mutations were inserted into the Vernier zone residues of human framework indicated in GenBank accession number M99660 (FUSE524-525, FUSE589, FUSE597-598, FUSE537, FUSE661-662, BI-HU9-HK and BI-HU9-HK-1), and a second yeast display library in which mutations were inserted into the Vernier zone residues of human framework indicated in GenBank accession number AWH66715 and amino acid position 103 within CDR3 (FUSE559, FUSE590-596, BI-HU9-VH9-1, FUSE654-655 and FUSE661-662. Affinity matured variants of FUSE559 were also generated using computational design (F22158101-21; Table 9H).
(In general: In flow cytometry, cells or beads pass a laser one at a time.)

A further experiment deals with T2, human CD3 on T cells (human, UniProt P07766 23-207; P09693 23-182; P04234 22-171; P20963 22-164).
T2 construct: whole, on cells; also called human CD3 on Jurkat T cells; human CD3 on T cells isolated from human PBMC
Nature of the experiment: flow cytometry on CD3+ Jurkat NFAT Lucia cells, secondary antibody to the IgG1 Fc.

Experiment [2] has as its target T1, human ROR1 (Receptor Tyrosine …). Nature of the experiment: flow cytometry on ROR1+ MDA-MB-231 cells, secondary antibody to the IgG1 Fc; table row 'Binding EC50 (nM)', the graph's axis reads 'Concentration (pM)'.
For experiment [3], the target named is T3, recombinant His tagged human ROR1 (human, UniProt Q01973 30-403, limits assumed).
T3 construct: Analyte in the BLI assay; also called Human ROR1-His; recombinant ROR1
Briefly: BLI (Octet), FUSE protein on the tip, His tagged ROR1 in solution. The protocol:
As shown in FIGS. 5A-5D, the binding affinities (KD) of TCEs for ROR1 were assessed. We examined the magnitude by which several TCEs and mutants thereof bind to recombinant ROR1. Kinetic binding graphs were generated via Bio-Layer Interferometry (BLI) using an Octet system. For each TCE, the biosensor tips were coated with FUSE proteins at 15 μg/ml and probed with either recombinant His tagged ROR1 at concentrations ranging from 100 pM to 10 μM. […] The binding affinity (KD), on rate (k-on) and off rate (k-dis), are summarized for ROR1 in FIG. 5D.
We further examined the impact of mutating the cysteine residues located in CDR1 and CDR3 of 2A11 VHH and 5A1 VHH.
For orientation: BLI is a label-free optical method that tracks binding on a fibre tip over time.

In experiment [4] the target is T3, recombinant His tagged human ROR1. Briefly: SPR (Biacore 8K), recombinant human ROR1 amine-coupled on a CM5 chip (4400 RU), analyte 200nM, 1:1 binding fit [table below it]. The protocol:
(§2) Protein test article binding to recombinant human ROR1 (Acro Biosystems, RO1-H522y) was detected on a BIAcore 8K (Cytiva) biosensor system using an SPR assay. Briefly, a carboxymethylated CM5 sensor chip was activated with 1:1 mixture of 0.4 M N-ethyl-N-(3-dimethylaminopropyl) carbodiimide and 0.1 M′ N-hydroxysuccinimide. Recombinant human ROR1 in 10 mM NaOAc (pH5) was then immobilized on the sensor chip by amine-coupling according to the manufacturer's instructions to yield the stable RU of 4400. Unreacted sites were blocked with 1M ethanolamine/HCl (pH 8). Control flow cells (blank) were activated and blocked in the absence of ROR1. Flow cells were routinely equilibrated with running buffer (PBS, 0.005% surfactant P20). Test article proteins used for assessment of binding to recombinant human ROR1 binding were diluted in HBS-EP running buffer and injected into the sensor chip at different concentrations. […] Data from duplicate assays were modeled for binding equilibrium and dot plots for 200 nM of protein test article was calculated. Association constant (ka), dissociation constant (kd) and binding affinity (KD=kd/ka) were generated from integrated software in the BIAcore 8K system.
(§3) Shown are sensorgrams of surface plasmon resonance (SPR) data generated via Biacore analysis. A summary table of binding affinity (KD), on rate (k-a) and off rate (kd) is shown below FIG. 16B.
A general note: In SPR one partner is held on a chip, and binding of the other changes the refractive index at the surface.

The target in experiment [5] is T1, human ROR1 (Receptor Tyrosine …). Nature of the experiment: flow cytometry, LS174T cells expressing human ROR1 (low density). The method, then:
as §1

The target is the same in experiment [6]. Described as above. The protocol:
as §1
This is another data set of the same source.

Experiment [7] has the same target. Nature of the experiment: flow cytometry on B16-F10 cells engineered to express human ROR1, secondary antibody to the IgG1 Fc. The method, then:
As shown in FIG. 15 the apparent binding affinity (EC50-binding) of the ROR1 specific VHH-Fc incorporating either the non humanized VHH clone 5A1 (FUSE179; black circle), the humanized clone 5A1-FA9-HK1 (FUSE559; black square) or the humanized clone 5A1-HK1 (FUSE524; black triangle) was calculated. Shown is a non-linear x-y plot of binding to B16-F10 cell engineered to express human ROR1 relative to the concentration of test article used for staining. A Hen Egg Lysozyme (HEL)-specific antibody was used as the negative isotype control. Binding was measured via flow cytometry using a fluorescently labeled secondary antibody specific for the Fc domain of IgG1. A summary table of EC50s and maximum MFI is shown beneath under the graph.

Experiment [8] concerns the target T3, recombinant His tagged human ROR1. Nature of the experiment: SPR (Biacore 8K), recombinant human ROR1 amine-coupled on a CM5 chip (4400 RU), analyte 200nM, 1:1 binding fit; column '1:1 binding ka (1/Ms)' [table below it]. The protocol: as §2, §3
Experiment [9] has as its target T1, human ROR1 (Receptor Tyrosine …). Briefly: flow cytometry, B16-F10 cells expressing human ROR1 (high density). The protocol: as §1
The source holds these as a separate data set.

Experiment [10] has as its target T3, recombinant His tagged human ROR1. Briefly: SPR (Biacore 8K), recombinant human ROR1 amine-coupled on a CM5 chip (4400 RU), analyte 200nM, 1:1 binding fit; column 'kd (1/s)' [table below it]. The method, then: as §2, §3
Experiment [11] deals with T1, human ROR1 (Receptor Tyrosine …). Briefly: flow cytometry, B16-F10 cells expressing human ROR1 (high density). The method, then: as §1
The source holds these as a separate data set.

T3 sequence (Q01973 30-403 limits assumed): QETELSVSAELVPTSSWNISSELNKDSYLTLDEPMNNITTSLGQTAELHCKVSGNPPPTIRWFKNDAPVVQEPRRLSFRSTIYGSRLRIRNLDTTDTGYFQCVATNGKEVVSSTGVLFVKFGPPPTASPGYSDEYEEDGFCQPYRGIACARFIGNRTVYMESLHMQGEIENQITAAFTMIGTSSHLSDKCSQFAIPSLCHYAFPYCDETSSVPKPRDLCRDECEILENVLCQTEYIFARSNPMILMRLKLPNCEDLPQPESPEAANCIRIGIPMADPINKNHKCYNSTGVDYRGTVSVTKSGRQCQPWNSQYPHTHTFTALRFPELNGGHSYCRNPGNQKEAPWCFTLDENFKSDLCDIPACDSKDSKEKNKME
T1 sequence (Q01973 30-937): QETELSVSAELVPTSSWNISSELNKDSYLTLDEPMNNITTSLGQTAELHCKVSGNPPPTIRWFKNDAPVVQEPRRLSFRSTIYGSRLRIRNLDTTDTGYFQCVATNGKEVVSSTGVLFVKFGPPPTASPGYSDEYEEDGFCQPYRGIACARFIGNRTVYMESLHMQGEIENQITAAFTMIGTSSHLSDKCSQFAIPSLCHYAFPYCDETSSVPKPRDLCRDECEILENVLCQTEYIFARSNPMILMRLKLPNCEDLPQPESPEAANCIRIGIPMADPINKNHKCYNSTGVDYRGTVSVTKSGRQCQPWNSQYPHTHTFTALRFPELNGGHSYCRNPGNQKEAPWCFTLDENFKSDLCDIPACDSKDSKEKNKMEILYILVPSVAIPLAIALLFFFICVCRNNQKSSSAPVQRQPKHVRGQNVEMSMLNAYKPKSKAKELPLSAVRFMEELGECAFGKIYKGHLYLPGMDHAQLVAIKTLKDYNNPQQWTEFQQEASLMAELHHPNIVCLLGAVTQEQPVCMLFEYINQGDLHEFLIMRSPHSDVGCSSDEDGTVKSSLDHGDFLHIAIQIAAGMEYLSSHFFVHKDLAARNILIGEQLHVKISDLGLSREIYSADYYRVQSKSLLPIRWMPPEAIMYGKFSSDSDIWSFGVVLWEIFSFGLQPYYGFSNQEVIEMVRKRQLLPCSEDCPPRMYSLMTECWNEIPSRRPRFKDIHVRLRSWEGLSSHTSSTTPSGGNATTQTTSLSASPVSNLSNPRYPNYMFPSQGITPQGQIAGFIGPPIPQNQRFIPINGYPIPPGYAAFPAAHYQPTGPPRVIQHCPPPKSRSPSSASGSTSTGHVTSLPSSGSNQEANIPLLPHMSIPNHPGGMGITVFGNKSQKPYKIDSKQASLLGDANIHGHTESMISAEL
T2 sequence (P07766 23-207, chain 1 of 4): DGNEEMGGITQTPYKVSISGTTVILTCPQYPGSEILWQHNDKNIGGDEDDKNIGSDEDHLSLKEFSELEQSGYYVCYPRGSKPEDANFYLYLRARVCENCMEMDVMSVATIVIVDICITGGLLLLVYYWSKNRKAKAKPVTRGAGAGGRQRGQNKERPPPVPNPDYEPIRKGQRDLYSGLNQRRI
T2 sequence (P09693 23-182, chain 2 of 4): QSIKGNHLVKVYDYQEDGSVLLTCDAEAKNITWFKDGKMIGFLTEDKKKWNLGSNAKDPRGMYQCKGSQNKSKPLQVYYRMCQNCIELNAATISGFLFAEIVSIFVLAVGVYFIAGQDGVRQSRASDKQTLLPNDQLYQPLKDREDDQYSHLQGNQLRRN
T2 sequence (P04234 22-171, chain 3 of 4): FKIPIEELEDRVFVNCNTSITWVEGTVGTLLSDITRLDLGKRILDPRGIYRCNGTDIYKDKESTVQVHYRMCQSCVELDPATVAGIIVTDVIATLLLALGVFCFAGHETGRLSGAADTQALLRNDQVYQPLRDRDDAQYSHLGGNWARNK
T2 sequence (P20963 22-164, chain 4 of 4): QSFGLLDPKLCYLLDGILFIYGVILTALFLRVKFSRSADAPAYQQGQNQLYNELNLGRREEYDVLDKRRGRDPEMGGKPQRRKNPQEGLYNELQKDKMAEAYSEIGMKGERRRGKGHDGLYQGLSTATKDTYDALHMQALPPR

B1: FUSE-488 (5A1-Ac13) (bispecific antibody, human IgG1, lambda, L234A L235A)
heavy: EVQLVESGGGLVQPGGSLRLSCAASGFTFSTYAMNWVRQAPGKGLEWVARIRSKYNNYATYYADSVKDRFTISRDDSKNTLYLQMNSLRAEDTAVYYCARHGNFGNSYVSWFAYWGQGTMVTVSSASTKGPSVFPLAPSSKSTSGGTAALGCLVKDYFPEPVTVSWNSGALTSGVHTFPAVLQSSGLYSLSSVVTVPSSSLGTQTYICNVNHKPSNTKVDKKVEPKSCDKTHTCPPCPAPEAAGGPSVFLFPPKPKDTLMISRTPEVTCVVVDVSHEDPEVKFNWYVDGVEVHNAKTKPREEQYNSTYRVVSVLTVLHQDWLNGKEYKCKVSNKALPAPIEKTISKAKGQPREPQVYTLPPSREEMTKNQVSLSCAVKGFYPSDIAVEWESNGQPENNYKTTPPVLDSDGSFFLVSKLTVDKSRWQQGNVFSCSVMHEALHNRFTQKSLSLSPGK
chain: QVQLQESGGGSVQAGGSLKLSCTASGYTNRLKCMGWFRQAPGKEREEIATISTGTGNTYYADSVKGRFTFSQDKVKNTVYLQMNTLKPDDTGMYYCAADVRPDGTTCHYNSGGQGTQVTVSSEPKSSDKTHTCPPCPAPEAAGGPSVFLFPPKPKDTLMISRTPEVTCVVVDVSHEDPEVKFNWYVDGVEVHNAKTKPREEQYNSTYRVVSVLTVLHQDWLNGKEYKCKVSNKALPAPIEKTISKAKGQPREPQVYTLPPSREEMTKNQVSLWCLVKGFYPSDIAVEWESNGQPENNYKTTPPVLDSDGSFFLYSKLTVDKSRWQQGNVFSCSVMHEALHNHYTQKSLSLSPGK
light: QAVVTQEPSLTVSPGGTVTLTCRSSTGAVTTSNYANWVQQKPGQAPRGLIGGTNKRAPGTPARFSGSLLGGKAALTLSGVQPEDEAEYYCALWYSNLWVFGGGTKLTVLGQPKAAPSVTLFPPSSEELQANKATLVCLISDFYPGAVTVAWKADSSPVKAGVETTTPSKQSNNKYAASSYLSLTPEQWKSHRSYSCQVTHEGSTVEKTVAPTECSGGGGSGGGGSGGGGSGGGGSQVQLQESGGGSVQAGGSLKLSCTASGYTNRLKCMGWFRQAPGKEREEIATISTGTGNTYYADSVKGRFTFSQDKVKNTVYLQMNTLKPDDTGMYYCAADVRPDGTTCHYNSGGQGTQVTVSS
notes: also called humanized CD3 clone 1F3.3 x ROR1 VHH 5A1; non humanized 5A1 x 1F3-3 bsAb in format Ac13
As usually defined, the EC50 is the concentration needed to bring the measured effect to its halfway point. The low end stands for an effect from little substance, the high end for a need for much substance. As for B1, the MFI in experiment [1] is 3910. Moreover, the EC50 stood at 10.6 nM with human CD3 on T cells and 19.2 nM in experiment [2].

B2: FUSE-453 (2A11 VHH mutant-Fc fusion protein) (Fc fusion)
chain: QVQLQESGGGSVPAGGSLRLSCAASGSTYSANVMGWFRQAPGKEREEVASMSIRSGRTYYSDSVKGRFTISQDGSKNTLYLQLNSLKAEDTALYYCAAAYGGSRVVYNYRGQGTQVTVSS
notes: also called mutant 2A11; 2A11-CV; not shown: human Fc
Regarding B2, in experiment [3], the “fold lower affinity than FUSE-112” value was above 100 fold.

B3: FUSE-454 (5A1 VHH mutant-Fc fusion protein) (Fc fusion)
chain: QVQLQESGGGSVQAGGSLKLSCTASGYTNRLKVMGWFRQAPGKEREEIATISTGTGNTYYADSVKGRFTFSQDKVKNTVYLQMNTLKPDDTGMYYCAADVRPDGTTVHYNSGGQGTQVTVSS
notes: also called mutant 5A1; 5A1-CV; not shown: human Fc
On to B3, for which, in [3], the “fold lower affinity than the parent (printed FUSE-454, meant FUSE-179)” value was above 100 fold.

B4: FUSE-559 (h5A1-FA9-HK1 Fc) (Fc fusion)
chain: EVQLLESGGGLVQPGGSLRLSCTASGYTNRLKCMGWFRQAPGKEREEIASISTGTGNTYYADSVKGRFTISRDKSRNTLYLQMNTLRAEDTAVYYCAADVRPHGTTCHYNSRGQGTQVTVSS
notes: VHH-Fc format; also called humanized clone 5A1-FA9-HK1; not shown: Fc of the VHH-Fc format
The term Kd denotes a measure of binding affinity in units of concentration. By kon is commonly meant the second-order rate constant of association. As a reminder, the koff is the first-order rate constant of dissociation. In the case of B4, in [4], the equilibrium dissociation constant (Kd) stood at 2.56 nM. Further, the MFI stood at 24400 in [5], 3120 in [6], 199000 in [9] and 6080 in experiment [11]. The same molecule displayed an EC50 in [7] of 2.31 nM. Also, the “Max MFI” value in experiment [7] is 7600 MFI. Moreover, in [8], the association rate constant (kon) was determined as 301000 M⁻¹ s⁻¹. In [10], the dissociation rate constant (koff) turned out to be 0.00077 s⁻¹.

The record behind these values is patent publication US20250313627A1 (FUSE BIOTHERAPEUTICS, published 2025).
